In paper PMC3420232:

Target: wild-type human TRAILR1 (human), O00220
Assay: radioligand binding; competition on cells: 4x10^5 murine fibroblasts expressing the (chimeric) TRAIL receptor in PFA (PBS, 2% FCS, 0.002% sodium azide), 83 ng/ml 125I-TRAIL with or without unlabeled recombinant human TRAIL (83-5300 ng/ml), 4 hours on ice; cells spun through phthalate oil; 68 kDa used for TRAIL
Details: remark: other sources report otherwise

- IC50: 17.7 nM
B1: Flag-tagged recombinant human TRAIL (sTRAIL), unlabeled, P50591 95-281 (ligand)
chain: TSEETISTVQEKQQNISPLVRERGPQRVAAHITGTRGRSNTLSSPNSKNEKALGRKINSWESSRSGHSFLSNLHLRNGELVIHEKGFYYIYSQTYFRFQEEIKENTKNDKQMVQYIYKYTSYPDPILLMKSARNSCWSKDAEYGLYSIYQGGIFELKENDRIFVSVTNEHLIDMDHEASFFGAFLVG
